Reference: article PMC5491523 (2017)

B1: CIB2-V5 (calcium and integrin-binding protein 2, V5 tagged, wild type) [human] / TMC1-EGFP (EGFP tagged human full length TMC1) [human] (parent complex)
chain 1: MGNKQTIFTEEQLDNYQDCTFFNKKDILKLHSRFYELAPNLVPMDYRKSPIVHVPMSLIIQMPELRENPFKERIVAAFSEDGEGNLTFNDFVDMFSVLCESAPRELKANYAFKIYDFNTDNFICKEDLELTLARLTKSELDEEEVVLVCDKVIEEADLDGDGKLGFADFEDMIAKAPDFLSTFHIRI
chain 2: MSPKKVQIKVEEKEDETEESSSEEEEEVEDKLPRRESLRPKRKRTRDVINEDDPEPEPEDEETRKAREKERRRRLKRGAEEEEIDEEELERLKAELDEKRQIIATVKCKPWKMEKKIEVLKEAKKFVSENEGALGKGKGKRWFAFKMMMAKKWAKFLRDFENFKAACVPWENKIKAIESQFGSSVASYFLFLRWMYGVNMVLFILTFSLIMLPEYLWGLPYGSLPRKTVPRAEEASAANFGVLYDFNGLAQYSVLFYGYYDNKRTIGWMNFRLPLSYFLVGIMCIGYSFLVVLKAMTKNIGDDGGGDDNTFNFSWKVFTSWDYLIGNPETADNKFNSITMNFKEAITEEKAAQVEENVHLIRFLRFLANFFVFLTLGGSGYLIFWAVKRSQEFAQQDPDTLGWWEKNEMNMVMSLLGMFCPTLFDLFAELEDYHPLIALKWLLGRIFALLLGNLYVFILALMDEINNKIEEEKLVKANITLWEANMIKAYNASFSENSTGPPFFVHPADVPRGPCWETMVGQEFVRLTVSDVLTTYVTILIGDFLRACFVRFCNYCWCWDLEYGYPSYTEFDISGNVLALIFNQGMIWMGSFFAPSLPGINILRLHTSMYFQCWAVMCCNVPEARVFKASRSNNFYLGMLLLILFLSTMPVLYMIVSLPPSFDCGPFSGKNRMFEVIGETLEHDFPSWMAKILRQLSNPGLVIAVILVMVLAIYYLNATAKGQKAANLDLKKKMKMQALENKMRNKKMAAARAAAAAGRQ

Variants of: B1
Experiment: FRET; cells co-expressing EGFP tagged human TMC1 (donor) and V5 tagged human CIB2; parent: 22; read off a plot

response [%]	Variant
~19	chain 1 MGNKQTIFTEEQLDNYQDCTFFNKKDILKLHSRFYELAPNLVPMDYRKSPIVHVPMSLIIQMPELWENPFKERIVAAFSEDGEGNLTFNDFVDMFSVLCESAPRELKANYAFKIYDFNTDNFICKEDLELTLARLTKSELDEEEVVLVCDKVIEEADLDGDGKLGFADFEDMIAKAPDFLSTFHIRI [chain 1 R66W]
~19	chain 1 MGNKQTIFTEEQLDNYQDCTFFNKKDILKLHSRFYELAPNLVPMDYRKSPIVHVPMSLIIQMPELRENPFKERIVAAFSEDGEGNLTFNDFVDMFSVLCESAPRELKANYAFKIYDFNTDNFICKEDLELTLARLTKSELDEEEVVLVCDKVIEEADLDGDGKLGFADFEDMIAKAPDFLSTFHIWI [chain 1 R186W]
~18	chain 1 MGNKQTIFTEEQLDNYQDCTFFNKKDILKLHSRFYELAPNLVPMDYRKSPIVHVPMSLIIQMPELRENPFKERIVAAFSEDGEGNLTFNDFVDMFSVLCESAPRELKANYAFKIYDFNTDNFTCKEDLELTLARLTKSELDEEEVVLVCDKVIEEADLDGDGKLGFADFEDMIAKAPDFLSTFHIRI [chain 1 I123T]

Further lines, the variant ahead of its results:

Variant	response [%]
chain 1 MGNKQTIFTEEQLDNYQDCTFFNKKDILKLHSRFYELAPNLVPMDYRKSPIVHVPMSLIIQMPELRENPFKERIVAAFSEDGEGNLTFNDFVDMFSVLWESAPRELKANYAFKIYDFNTDNFICKEDLELTLARLTKSELDEEEVVLVCDKVIEEADLDGDGKLGFADFEDMIAKAPDFLSTFHIRI [chain 1 C99W]	~5
chain 1 MGNKQTIFTEEQLDNYQDCTFFNKKDILKLHSRFYELAPNLVPMDYRKSPIVHVPMSLIIQMPDLRENPFKERIVAAFSEDGEGNLTFNDFVDMFSVLCESAPRELKANYAFKIYDFNTDNFICKEDLELTLARLTKSELDEEEVVLVCDKVIEEADLDGDGKLGFADFEDMIAKAPDFLSTFHIRI [chain 1 E64D]	~6.5
chain 1 MGNKQTIFTEEQLDNYQDCTFFNKKDILKLHSRFYELAPNLVPMDYRKSPIVHVPMSLIIQMPELRENPFKERIVAAFSEDGEGNLTFNDSVDMFSVLCESAPRELKANYAFKIYDFNTDNFICKEDLELTLARLTKSELDEEEVVLVCDKVIEEADLDGDGKLGFADFEDMIAKAPDFLSTFHIRI [chain 1 F91S]	~3
